Measurements reported in patent US20230302148A1, “PHARMACEUTICAL COMPOSITION COMPRISING LONG-ACTING CONJUGATE OF TRIPLE GLUCAGON/GLP-1/GIP RECEPTOR AGONIST” (HANMI PHARM. CO., LTD., priority 2020, published 2023).
Bridges are numbered along the chain shown (N, C = ends). Where no end group is shown, it is not given here. [ ]: non-standard residue; d: D form. The star is where a group is joined. Acetyl(2-(4-imidazolyl)) = O=C(Cc1c[nH]cn1)*; Aib = CC(C)(N)C(=O)O

T1: human GIP receptor (human, UniProt P48546 22-466)
T1 sequence (looked up): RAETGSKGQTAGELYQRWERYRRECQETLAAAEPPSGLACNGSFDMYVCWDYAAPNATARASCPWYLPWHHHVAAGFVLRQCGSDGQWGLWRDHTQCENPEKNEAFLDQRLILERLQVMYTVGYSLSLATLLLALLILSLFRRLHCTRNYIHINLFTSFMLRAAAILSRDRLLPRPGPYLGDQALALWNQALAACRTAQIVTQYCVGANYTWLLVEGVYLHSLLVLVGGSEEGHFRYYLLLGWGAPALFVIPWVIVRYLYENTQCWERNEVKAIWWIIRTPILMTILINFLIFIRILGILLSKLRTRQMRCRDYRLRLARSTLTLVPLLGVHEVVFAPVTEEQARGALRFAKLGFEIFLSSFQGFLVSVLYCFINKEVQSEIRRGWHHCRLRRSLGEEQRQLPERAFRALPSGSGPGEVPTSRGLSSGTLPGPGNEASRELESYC

B1: triple agonist of SEQ ID NO: 95 (peptide)
peptide: Y[Aib]QGTFTSDYSKYLDEKRAKEFVQWLLCHHPSSGQPPPS
modifications: bridge 16-20
B2: triple agonist of SEQ ID NO: 18 (peptide)
peptide: [Acetyl(2-(4-imidazolyl))]GQGTFTSDLSKQMDSERAREFIEWLKNTGPSSGAPPPSHG
B3: triple agonist of SEQ ID NO: 91 (peptide)
peptide: {Acetyl(2-(4-imidazolyl))}-[Aib]EGTFTSDYSIAMDEIHQKDFVDWLLAEKC
modifications: bridge 15-19
B4: triple agonist of SEQ ID NO: 100 (peptide)
peptide: Y[Aib]QGTFTSDYSKALDEKAAKEFVQWLLDQHPSSGQPPPSC
modifications: bridge 16-20
B5: triple agonist of SEQ ID NO: 92 (peptide)
peptide: {Acetyl(2-(4-imidazolyl))}-[Aib]QGTFTSDYSIAMDEIHQKDFVNWLLAQKC
modifications: bridge 15-19
B6: triple agonist of SEQ ID NO: 14 (peptide)
peptide: [Acetyl(2-(4-imidazolyl))]GQGTFTSDYSIQLDEIAVRDFVEWLKNGGPSSGAPPPSHG
B7: triple agonist of SEQ ID NO: 10 (peptide)
peptide: H[Aib]QGTFTSDVSKYLDGQAAQEFVAWLLAGGGPSSGAPPPSC
B8: triple agonist of SEQ ID NO: 12 (peptide)
peptide: [Acetyl(2-(4-imidazolyl))]GEGTFISDLSKYMDEQAVQLFVEWLMAGGPSSGAPPPSHG
B9: triple agonist of SEQ ID NO: 98 (peptide)
peptide: Y[Aib]QGTFTSDYSKALDEKAAKEFVNWLLDHHPSSGQPPPSC
modifications: bridge 16-20
B10: triple agonist of SEQ ID NO: 17 (peptide)
peptide: [Acetyl(2-(4-imidazolyl))]GQGTFTSDLSKQMDEERAREFIEWLLAQKPSSGAPPPSHG
B11: triple agonist of SEQ ID NO: 94 (peptide)
peptide: {Acetyl(2-(4-imidazolyl))}-[Aib]QGTFTSDYSIAMDEIHQKDFVNWLLNTKC
modifications: bridge 15-19
B12: triple agonist of SEQ ID NO: 90 (peptide)
peptide: {Acetyl(2-(4-imidazolyl))}-[Aib]EGTFTSDYSIAMDEIHQKDFVNWLLAQKC
modifications: bridge 15-19
B13: triple agonist of SEQ ID NO: 16 (peptide)
peptide: [Acetyl(2-(4-imidazolyl))]GQGTFTSDLSKQMDSEAQQLFIEWLKNGGPSSGAPPPSHG
B14: triple agonist of SEQ ID NO: 101 (peptide)
peptide: Y[Aib]QGTFTSDYSKALDEKAAKEFVNWLLDQHPSSGQPPPSC
modifications: bridge 16-20
B15: triple agonist of SEQ ID NO: 93 (peptide)
peptide: {Acetyl(2-(4-imidazolyl))}-[Aib]QGTFTSDYSKYLDEKRQKEFVNWLLAQKC
modifications: bridge 15-19
B16: triple agonist of SEQ ID NO: 11 (peptide)
peptide: [Acetyl(2-(4-imidazolyl))]GEGTFTSDLSKYLDSRRQQLFVQWLKAGGPSSGAPPPSHG
B17: triple agonist of SEQ ID NO: 96 (peptide)
peptide: Y[Aib]QGTFTSDYSKYLDEKRAKEFVQWLLDHCPSSGQPPPS
modifications: bridge 16-20
B18: triple agonist of SEQ ID NO: 102 (peptide)
peptide: Y[Aib]QGTFTSDYSKALDEKAAKDFVNWLLDQHPSSGQPPPSC
modifications: bridge 16-20
B19: triple agonist of SEQ ID NO: 2 (peptide)
peptide: H[Aib]QGTFTSDVSSYLDGQAQKEFIAWLVKGC
B20: triple agonist of SEQ ID NO: 99 (peptide)
peptide: Y[Aib]QGTFTSDYSKALDEKAAKDFVNWLLDHHPSSGQPPPSC
modifications: lactam 16-20

Each binder was assayed against human GCG receptor (human, UniProt P47871 26-477) (assay: cell-based or functional assay).
human GCG receptor, sequence (P47871 26-477): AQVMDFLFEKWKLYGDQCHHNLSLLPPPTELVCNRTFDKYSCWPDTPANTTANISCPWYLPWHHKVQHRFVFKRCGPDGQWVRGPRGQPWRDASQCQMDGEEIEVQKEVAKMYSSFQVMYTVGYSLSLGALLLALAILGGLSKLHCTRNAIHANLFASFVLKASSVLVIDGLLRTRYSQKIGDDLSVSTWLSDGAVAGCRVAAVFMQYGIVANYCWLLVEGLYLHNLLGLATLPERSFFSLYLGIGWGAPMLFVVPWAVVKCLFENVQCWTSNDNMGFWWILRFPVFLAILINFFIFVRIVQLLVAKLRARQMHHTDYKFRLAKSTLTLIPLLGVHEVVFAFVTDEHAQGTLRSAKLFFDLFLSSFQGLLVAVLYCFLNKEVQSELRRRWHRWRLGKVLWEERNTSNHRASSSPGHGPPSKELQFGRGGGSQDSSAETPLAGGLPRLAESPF

Row | Binder | In vitro activity relative to native peptide (%) vs. Glucagon [%]
1 | B1 | 0.4
2 | B2 | < 0.1
3 | B3 | 16.8
4 | B4 | 12.7
5 | B5 | < 0.1
6 | B6 | < 0.1
7 | B7 | < 0.1
8 | B8 | < 0.1
9 | B9 | 8.2
10 | B10 | < 0.1
11 | B11 | < 0.1
12 | B12 | < 0.1
13 | B13 | < 0.1
14 | B14 | 13.9
15 | B15 | 0.3
16 | B16 | < 0.1
17 | B17 | 195
18 | B18 | 29.5
19 | B19 | < 0.1
20 | B20 | 14.9

The binders below were run against human GLP-1 receptor (human, UniProt P43220 24-463) (assay: cell-based or functional assay).

Row | Binder | In vitro activity relative to native peptide (%) vs. GLP-1 [%]
21 | B1 | 2.1
22 | B2 | < 0.1
23 | B3 | 31.9
24 | B4 | 42.2
25 | B5 | 0.8
26 | B6 | 28
27 | B7 | 46
28 | B8 | 0.4
29 | B9 | 28.1
30 | B10 | 0.2
31 | B11 | 0.5
32 | B12 | 7.4
33 | B13 | 2.1
34 | B14 | 23.2
35 | B15 | 5.7
36 | B16 | 1.4
37 | B17 | 34.4
38 | B18 | 23.3
39 | B19 | 5.9
40 | B20 | 20.9

What follows are binders tested against T1, human GIP receptor (assay: cell-based or functional assay).

Row | Binder | In vitro activity relative to native peptide (%) vs. GIP [%]
41 | B1 | < 0.1
42 | B2 | < 0.1
43 | B3 | 0.3
44 | B4 | 118
45 | B5 | 0.4
46 | B6 | < 0.1
47 | B7 | < 0.1
48 | B8 | < 0.1
49 | B9 | 47.1
50 | B10 | < 0.1
51 | B11 | < 0.1
52 | B12 | < 0.1
53 | B13 | < 0.1
54 | B14 | 40.1
55 | B15 | 0.7
56 | B16 | < 0.1
57 | B17 | 5.2
58 | B18 | 58
59 | B19 | < 0.1
60 | B20 | 57.7
